T1: His-tagged P3028 (human, also: His-tag, terminus and sequence not given here)
T1 construct: in solution at 0.5 ug/mL over the peptide cards; found with anti-His-tag antibody and rabbit anti-mouse peroxidase (rampo); also called PGE73; not shown: His-tag
T1 peptide: VFDEFKPLVEEPQNLIK

No end group written: not given here.

The results in this text go back to US20170298096A1 (CANIMGUIDE THERAPEUTICS, published 2017).

The assay concerns the target T1, His-tagged P3028. The assay can be described thus: PEPSCAN chip ELISA, His-P3028 in solution.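 Further: score is the raw OD at 405 nm from peroxidase colour with ABTS, imaged by CCD camera before and after staining, with wells showing air bubbles set to zero.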 On the technique in general: ELISA stands for enzyme-linked immunosorbent assay.
In the case of KKLCTFFVKLSLFTER [SEQ ID NO 449], the “RAMPO Score” value worked out at 344 rampo score. Next, KKLDTFFVKLALFTER [SEQ ID NO 477]: 318 rampo score; KTLDTFFVKLSLFTER [SEQ ID NO 468]: 331 rampo score; KKLDTFFVKLPLFTER [SEQ ID NO 470]: 328 rampo score. Next, KCLDTFFVKLSLFTER [SEQ ID NO 499]: 295 rampo score; KKLDTFFTKLSLFTER [SEQ ID NO 496]: 298 rampo score.

As for KKLDTFFVKLRLFTER [SEQ ID NO 464], the “RAMPO Score” value was found to be 333 rampo score.

Turning to KKLDTFFVKLWLFTER [SEQ ID NO 472], the “RAMPO Score” value amounted to 324 rampo score. Next, KWLDTFFVKLSLFTER [SEQ ID NO 490]: 304 rampo score; KKWDTFFVKLSLFTER [SEQ ID NO 458]: 341 rampo score. For KKLDTFFQKLSLFTER [SEQ ID NO 513], the “RAMPO Score” value came to 271 rampo score. As for WKLDTFFVKLSLFTER [SEQ ID NO 507], the “RAMPO Score” value turned out to be 284 rampo score. Next, KKLDTFFVKLSLFTHR [SEQ ID NO 478]: 318 rampo score; KKYDTFFVKLSLFTER [SEQ ID NO 452]: 344 rampo score.

On to KKLSTFFVKLSLFTER [SEQ ID NO 451], for which the “RAMPO Score” value came to 344 rampo score.

On to KKLDTFDVKLSLFTER [SEQ ID NO 492], for which the “RAMPO Score” value was found to be 301 rampo score.

For the molecule KKLDTFFVKKSLFTER [SEQ ID NO 506], the “RAMPO Score” value came out at 285 rampo score. In the case of KKLDTCFVKLSLFTER [SEQ ID NO 462], the “RAMPO Score” value came to 335 rampo score. Next, KKLDTFFVKLDLFTER [SEQ ID NO 474]: 322 rampo score. Regarding KKLDEFFVKLSLFTER [SEQ ID NO 456], the “RAMPO Score” value was found to be 341 rampo score. As to KKLDTFFVKLSCFTER [SEQ ID NO 455], the “RAMPO Score” value was 342 rampo score. On to KKLDFFFVKLSLFTER [SEQ ID NO 504], for which the “RAMPO Score” value came out at 290 rampo score. Turning to KKLDTFFVKLSLFAER [SEQ ID NO 489], the “RAMPO Score” value was 305 rampo score.

As for FKLDTFFVKLSLFTER [SEQ ID NO 465], the “RAMPO Score” value was determined as 332 rampo score. Next, KKLDTFFVKLSLYTER [SEQ ID NO 503]: 291 rampo score; KKLHTFFVKLSLFTER [SEQ ID NO 479]: 317 rampo score. Next, KKLDTFFVKLSPFTER [SEQ ID NO 497]: 297 rampo score. Regarding KKLDTRFVKLSLFTER [SEQ ID NO 486], the “RAMPO Score” value was 309 rampo score. The result for SKLDTFFVKLSLFTER [SEQ ID NO 453] reads 344 rampo score; that for KKLDIFFVKLSLFTER [SEQ ID NO 501], 293 rampo score; that for KKLDTFFVKLCLFTER [SEQ ID NO 457], 341 rampo score. KILDTFFVKLSLFTER [SEQ ID NO 467]: the “RAMPO Score” value came out at 331 rampo score. Next, KKLLTFFVKLSLFTER [SEQ ID NO 491]: 303 rampo score. Next, KVLDTFFVKLSLFTER [SEQ ID NO 481]: 317 rampo score; KDLDTFFVKLSLFTER [SEQ ID NO 461]: 335 rampo score.

KKLDTFFVKLSLFTQR [SEQ ID NO 450]: the “RAMPO Score” value was 344 rampo score. Turning to KKLDTFFVQLSLFTER [SEQ ID NO 469], the “RAMPO Score” value was 330 rampo score.

In the case of KKLDTFFVKLSLFTKR [SEQ ID NO 471], the “RAMPO Score” value worked out at 324 rampo score. The result for KKLDTFFVKLSLFQER [SEQ ID NO 493] reads 301 rampo score. The result for KKLDTKFVKLSLFTER [SEQ ID NO 460] reads 337 rampo score. With KKLDTFFVKLKLFTER [SEQ ID NO 473], the “RAMPO Score” value stood at 323 rampo score. For the molecule KKLGTFFVKLSLFTER [SEQ ID NO 515], the “RAMPO Score” value came to 264 rampo score. Next, YKLDTFFVKLSLFTER [SEQ ID NO 483]: 315 rampo score. Turning to KKLDTFYVKLSLFTER [SEQ ID NO 463], the “RAMPO Score” value is 334 rampo score. Regarding KKLDTFFVKLSLFTYR [SEQ ID NO 459], the “RAMPO Score” value was 340 rampo score.

As for KKLDTHFVKLSLFTER [SEQ ID NO 466], the “RAMPO Score” value was 332 rampo score. Next, KKLDTFFVKWSLFTER [SEQ ID NO 482]: 316 rampo score; KSLDTFFVKLSLFTER [SEQ ID NO 510]: 281 rampo score; KKLDTFFVKLSYFTER [SEQ ID NO 475]: 320 rampo score. Next, KKLDTFFVKCSLFTER [SEQ ID NO 508]: 283 rampo score; KLLDTFFVKLSLFTER [SEQ ID NO 454]: 343 rampo score.

For the molecule KKLDTFFVMLSLFTER [SEQ ID NO 509], the “RAMPO Score” value amounted to 283 rampo score. The result for KYLDTFFVKLSLFTER [SEQ ID NO 494] reads 301 rampo score; that for KKLDTFFVHLSLFTER [SEQ ID NO 488], 306 rampo score. For KKLRTFFVKLSLFTER [SEQ ID NO 480], the “RAMPO Score” value came to 317 rampo score. The result for KKLDLFFVKLSLFTER [SEQ ID NO 484] reads 311 rampo score; that for KKLDDFFVKLSLFTER [SEQ ID NO 500], 295 rampo score. The result for KKLDTFFVKLILFTER [SEQ ID NO 505] reads 289 rampo score. In the case of KKLDTFFVSLSLFTER [SEQ ID NO 511], the “RAMPO Score” value was determined as 274 rampo score. Next, KKLDTFFVKLSLFYER [SEQ ID NO 514]: 270 rampo score; KKLKTFFVKLSLFTER [SEQ ID NO 512]: 274 rampo score. As to KKLNTFFVKLSLFTER [SEQ ID NO 498], the “RAMPO Score” value worked out at 296 rampo score. Take KKLDTFFVKHSLFTER [SEQ ID NO 502]: the “RAMPO Score” value is 293 rampo score. Next, KKLDTFFAKLSLFTER [SEQ ID NO 495]: 299 rampo score; KALDTFFVKLSLFTER [SEQ ID NO 485]: 309 rampo score.
